The subject of series [1] is HeLa Kyoto. The experiment in a line: solubility in G1/S (NP-40 vs SDS abundance) (log2 ratio); higher = more soluble. The following applies: cell cycle stage: G1/S.
Series [2] deals with HeLa Kyoto. The experiment in a line: melting temperature (median over replicates), in situ; higher = more thermally stable.
For series [3], the system named is HeLa Kyoto. Put plainly: solubility change mitosis vs G1/S (difference of NP-40 vs SDS log2 ratios) (log2 ratio difference); higher = more soluble in mitosis.
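Throughout, for melting temperature (median over replicates), in situ: HeLa Kyoto cells synchronized by double thymidine or nocodazole block, proteins quantified by TMT10plex mass spectrometry, three independent biological replicates.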
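Throughout, for solubility change mitosis vs G1/S (difference of NP-40 vs SDS log2 ratios): synchronized HeLa Kyoto cells (double thymidine block for G1/S, nocodazole release for mitosis), protein amounts in NP-40 versus SDS lysates quantified by mass spectrometry, three biological replicates.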
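Throughout, for solubility in G1/S (NP-40 vs SDS abundance): HeLa Kyoto cells arrested at G1/S by double thymidine block, proteins quantified by TMT10plex mass spectrometry in mild NP-40 versus SDS extracts, three biological replicates.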

As to “MGEIEGTYRVLQTAGMRLGAQTPVGVSTLEPGQTLLPRMQEKHLHLRVKLLDNTMEIFDIEPKCDGQVLLTQVWKRLNLVECDYFGMEFQNTQSYWIWLEPMKPIIRQIRRPKNVVLRLAVKFFPPDPGQLQEEYTRYLFALQLKRDLLEERLTCADTTAALLTSHLLQSEIGDYDETLDREHLKVNEYLPGQQHCLEKILEFHQKHVGQTPAESDFQVLEIARKLEMYGIRFHMASDREGTKIQLAVSHMGVLVFQGTTKINTFNWSKVRKLSFKRKRFLIKLHPEVHGPYQDTLEFLLGSRDECKNFWKICVEYHTFFRLLDQPKPKAKAVFFSRGSSFRYSGRTQKQLVDYFKDSGMKRIPYERRHSKTHTSVRALTADLPKQSISFPEGLRTPASPSSANAFYSLSPSTLVPSGLPEFKDSSSSLTDPQVSYVKSPAAERRSGAVAGGPDTPSAQPLGPPALQPGPGLSTKSPQPSPSSRKSPLSLSPAFQVPLGPAEQGSSPLLSPVLSDAGGAGMDCEEPRHKRVPADEAYFIVKEILATERTYLKDLEVITVWFRSAVVKEDAMPATLMTLLFSNIDPIYEFHRGFLREVEQRLALWEGPSKAHTKGSHQRIGDILLRNMRQLKEFTSYFQRHDEVLTELEKATKRCKKLEAVYKEFELQKVCYLPLNTFLLKPIQRLLHYRLLLRRLCGHYSPGHHDYADCHDALKAITEVTTTLQHILIRLENLQKLTELQRDLVGIENLIAPGREFIREGCLHKLTKKGLQQRMFFLFSDMLLYTSKGVAGTSHFRIRGLLPLQGMLVEESDNEWSVPHCFTIYAAQKTIVVAASTRLEKEKWMLDLNSAIQAAKSGGDTAPALPGRTVCTRPPRSPNEVSLEQESEDDARGVRSSLEGHGQHRANTTMHVCWYRNTSVSRADHSAAVENQLSGYLLRKFKNSHGWQKLWVVFTNFCLFFYKTHQDDYPLASLPLLGYSVSIPREADGIHKDYVFKLQFKSHVYFFRAESKYTFERWMEVIQGASSSAGRAPSIVQDGPQPSSGLEGMVRGKEE [FARP2]”, the “solubility in G1/S (log2)” value in series [1] was -0.166. Besides, in series [2] (cell cycle stage: mitosis), the melting temperature was found to be 50 °C. Moreover, the “solubility change mitosis (log2)” value in series [3] was -0.0474.

For “MGGLFWRSALRGLRCGPRAPGPSLLVRHGSGGPSWTRERTLVAVKPDGVQRRLVGDVIQRFERRGFTLVGMKMLQAPESVLAEHYQDLRRKPFYPALIRYMSSGPVVAMVWEGYNVVRASRAMIGHTDSAEAAPGTIRGDFSVHISRNVIHASDSVEGAQREIQLWFQSSELVSWADGGQHSSIHPA [NME4]”, the “solubility in G1/S (log2)” value in series [1] amounted to 0.0944. The melting temperature in series [2] (cell cycle stage: G1/S) was found to be 54.9 °C; in series [2] (cell cycle stage: mitosis) it was 54.5 °C. Further, the “solubility change mitosis (log2)” value in series [3] is -0.189.

As to “MGKEKTHINIVVIGHVDSGKSTTTGHLIYKCGGIDKRTIEKFEKEAAEMGKGSFKYAWVLDKLKAERERGITIDISLWKFETSKYYVTIIDAPGHRDFIKNMITGTSQADCAVLIVAAGVGEFEAGISKNGQTREHALLAYTLGVKQLIVGVNKMDSTEPPYSQKRYEEIVKEVSTYIKKIGYNPDTVAFVPISGWNGDNMLEPSANMPWFKGWKVTRKDGNASGTTLLEALDCILPPTRPTDKPLRLPLQDVYKIGGIGTVPVGRVETGVLKPGMVVTFAPVNVTTEVKSVEMHHEALSEALPGDNVGFKVKNVSVKDVRRGNVAGDSKNDPPMEAAGFTAQVIILNHPGQISAGYAPVLDCHMAHIACKFAELKEKIDRRSGKKLEDGPKFLKSGDAAIVDMVPGKPMCVESFSDYPPLGRFAVRDMRQTVAVGVIKAVDKKAAGAGKVTKSAQKAQKAK [EEF1A1P5]”, the “solubility in G1/S (log2)” value in series [1] amounted to 0.301. For the same sequence, the melting temperature in series [2] (cell cycle stage: G1/S) and in series [2] (cell cycle stage: mitosis) was 52.4 °C each time. The “solubility change mitosis (log2)” value in series [3] is -0.0239.

In the case of “MGLGPVFLLLAGIFPFAPPGAAAEPHSLRYNLTVLSWDGSVQSGFLTEVHLDGQPFLRCDRQKCRAKPQGQWAEDVLGNKTWDRETRDLTGNGKDLRMTLAHIKDQKEGLHSLQEIRVCEIHEDNSTRSSQHFYYDGELFLSQNLETKEWTMPQSSRAQTLAMNVRNFLKEDAMKTKTHYHAMHADCLQELRRYLKSGVVLRRTVPPMVNVTRSEASEGNITVTCRASGFYPWNITLSWRQDGVSLSHDTQQWGDVLPDGNGTYQTWVATRICQGEEQRFTCYMEHSGNHSTHPVPSGKVLVLQSHWQTFHVSAVAAAAIFVIIIFYVRCCKKKTSAAEGPELVSLQVLDQHPVGTSDHRDATQLGFQPLMSDLGSTGSTEGA [MICA]”, the “solubility in G1/S (log2)” value in series [1] is -0.128. For the same sequence, the melting temperature in series [2] (cell cycle stage: G1/S) was determined as 55.9 °C; in series [2] (cell cycle stage: mitosis) it was 57.2 °C. Moreover, in series [3], the “solubility change mitosis (log2)” value is -0.108.

As for “MGLHLRPYRVGLLPDGLLFLLLLLMLLADPALPAGRHPPVVLVPGDLGNQLEAKLDKPTVVHYLCSKKTESYFTIWLNLELLLPVIIDCWIDNIRLVYNKTSRATQFPDGVDVRVPGFGKTFSLEFLDPSKSSVGSYFHTMVESLVGWGYTRGEDVRGAPYDWRRAPNENGPYFLALREMIEEMYQLYGGPVVLVAHSMGNMYTLYFLQRQPQAWKDKYIRAFVSLGAPWGGVAKTLRVLASGDNNRIPVIGPLKIREQQRSAVSTSWLLPYNYTWSPEKVFVQTPTINYTLRDYRKFFQDIGFEDGWLMRQDTEGLVEATMPPGVQLHCLYGTGVPTPDSFYYESFPDRDPKICFGDGDGTVNLKSALQCQAWQSRQEHQVLLQELPGSEHIEMLANATTLAYLKRVLLGP [PLA2G15]”, the “solubility in G1/S (log2)” value in series [1] worked out at 0.446. In addition, the results for the melting temperature in series [2] (cell cycle stage: G1/S) and in series [2] (cell cycle stage: mitosis) were 54.7 °C and 56.1 °C, respectively. The “solubility change mitosis (log2)” value in series [3] is 0.0116.

Take “MGRKVTVATCALNQWALDFEGNLQRILKSIEIAKNRGARYRLGPELEICGYGCWDHYYESDTLLHSFQVLAALVESPVTQDIICDVGMPVMHRNVRYNCRVIFLNRKILLIRPKMALANEGNYRELRWFTPWSRSRHTEEYFLPRMIQDLTKQETVPFGDAVLVTWDTCIGSEICEELWTPHSPHIDMGLDGVEIITNASGSHQVLRKANTRVDLVTMVTSKNGGIYLLANQKGCDGDRLYYDGCAMIAMNGSVFAQGSQFSLDDVEVLTATLDLEDVRSYRAEISSRNLAASRASPYPRVKVDFALSCHEDLLAPISEPIEWKYHSPEEEISLGPACWLWDFLRRSQQAGFLLPLSGGVDSAATACLIYSMCCQVCEAVRSGNEEVLADVRTIVNQISYTPQDPRDLCGRILTTCYMASKNSSQETCTRARELAQQIGSHHISLNIDPAVKAVMGIFSLVTGKSPLFAAHGGSSRENLALQNVQARIRMVLAYLFAQLSLWSRGVHGGLLVLGSANVDESLLGYLTKYDCSSADINPIGGISKTDLRAFVQFCIQRFQLPALQSILLAPATAELEPLADGQVSQTDEEDMGMTYAELSVYGKLRKVAKMGPYSMFCKLLGMWRHICTPRQVADKVKRFFSKYSMNRHKMTTLTPAYHAENYSPEDNRFDLRPFLYNTSWPWQFRCIENQVLQLERAEPQSLDGVD [NADSYN1]”: the “solubility in G1/S (log2)” value in series [1] amounted to 0.157. The sequence further showed a melting temperature in series [2] (cell cycle stage: mitosis) of 56.3 °C. For the same sequence, the “solubility change mitosis (log2)” value in series [3] was -0.234.

Values taken from the supplement of paper PMC5998384.
